Results reported in paper PMC9482650, “Quantitative fragmentomics allow affinity mapping of interactomes” (Nature Communications, 2022).

T1: LRRC7, Q96NW7
T1 sequence (Q96NW7 1440-1537, limits assumed, looked up): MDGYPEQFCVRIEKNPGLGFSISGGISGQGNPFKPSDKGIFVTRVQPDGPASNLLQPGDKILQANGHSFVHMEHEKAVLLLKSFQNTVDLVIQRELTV

T2: GRIP1_7, Q9Y3R0
T2 sequence (Q9Y3R0 999-1096, limits assumed, looked up): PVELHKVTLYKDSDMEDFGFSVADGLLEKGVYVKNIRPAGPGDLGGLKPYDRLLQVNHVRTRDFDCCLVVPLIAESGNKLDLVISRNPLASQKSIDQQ

T3: PARD3B_1, Q8TEW8
T3 sequence (Q8TEW8 196-299, limits assumed, looked up): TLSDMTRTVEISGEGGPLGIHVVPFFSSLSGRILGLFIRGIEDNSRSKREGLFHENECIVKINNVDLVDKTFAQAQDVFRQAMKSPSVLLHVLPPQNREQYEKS

T4: LNX2_2, Q8N448
T4 sequence (Q8N448 334-432, limits assumed, looked up): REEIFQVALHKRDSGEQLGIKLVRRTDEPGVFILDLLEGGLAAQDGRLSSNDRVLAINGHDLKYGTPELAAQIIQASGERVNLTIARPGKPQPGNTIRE

T5: DFNB31_3, Q9P202
T5 sequence (Q9P202 811-907, limits assumed, looked up): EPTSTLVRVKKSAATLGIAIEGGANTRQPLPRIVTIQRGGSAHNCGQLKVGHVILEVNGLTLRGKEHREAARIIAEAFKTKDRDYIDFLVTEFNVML

T6: SIPA1L2, Q9P2F8
T6 sequence (Q9P2F8 945-1036, limits assumed, looked up): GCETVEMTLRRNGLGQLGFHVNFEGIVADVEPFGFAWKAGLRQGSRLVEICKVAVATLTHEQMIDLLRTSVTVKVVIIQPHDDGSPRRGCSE

T7: TIAM2, Q8IVF5
T7 sequence (Q8IVF5 885-986, limits assumed, looked up): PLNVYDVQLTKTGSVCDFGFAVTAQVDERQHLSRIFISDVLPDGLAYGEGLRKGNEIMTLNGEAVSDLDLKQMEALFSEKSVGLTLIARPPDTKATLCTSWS

T8: GRIP1_4, Q9Y3R0
T8 sequence (Q9Y3R0 467-571, limits assumed, looked up): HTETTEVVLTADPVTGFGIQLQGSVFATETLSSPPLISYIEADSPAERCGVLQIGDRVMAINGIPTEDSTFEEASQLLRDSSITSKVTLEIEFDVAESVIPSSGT

T9: DLG3_1, Q92796
T9 sequence (Q92796 125-227, limits assumed, looked up): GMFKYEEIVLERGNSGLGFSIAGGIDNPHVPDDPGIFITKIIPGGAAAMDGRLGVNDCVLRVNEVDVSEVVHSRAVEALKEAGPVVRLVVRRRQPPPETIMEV

T10: MPDZ_10, O75970
T10 sequence (O75970 1624-1722, limits assumed, looked up): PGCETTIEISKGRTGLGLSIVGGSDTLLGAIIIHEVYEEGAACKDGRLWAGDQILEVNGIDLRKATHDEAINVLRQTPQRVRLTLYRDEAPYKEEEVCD

T11: PCLO, Q9Y6V0
T11 sequence (Q9Y6V0 4491-4600, limits assumed, looked up): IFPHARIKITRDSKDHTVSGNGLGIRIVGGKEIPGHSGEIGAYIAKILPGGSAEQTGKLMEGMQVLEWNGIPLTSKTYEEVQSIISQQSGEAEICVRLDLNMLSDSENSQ

B1: UNC93A, Q86WB7 (peptide)
chain: AEDEEIQTKM

Target: T1, LRRC7, Q96NW7
Assay: holdup assay
Set-up: key: below the threshold = too weak to quantify, mostly under pKd 3.1 to 4
Conditions: plain residues with an end cap or a label only (N-terminal biotin on a linker: ado-ado)

pKd	Binder
below the threshold	B1

Target: T2, GRIP1_7, Q9Y3R0
Assay: holdup assay
Set-up: key: below the threshold = too weak to quantify, mostly under pKd 3.1 to 4
Conditions: plain residues with an end cap or a label only (N-terminal biotin on a linker: ado-ado)

pKd	Binder
below the threshold	B1

Target: AHNAK1, Q09666
Assay: holdup assay
Set-up: key: below the threshold = too weak to quantify, mostly under pKd 3.1 to 4
Conditions: plain residues with an end cap or a label only (N-terminal biotin on a linker: ado-ado)

Sequence of AHNAK1, Q09666 (Q09666 4-100): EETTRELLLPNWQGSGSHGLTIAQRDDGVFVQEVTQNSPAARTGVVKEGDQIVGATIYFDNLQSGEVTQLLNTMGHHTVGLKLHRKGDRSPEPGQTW

pKd	Binder
below the threshold	B1

Target: TJP1_2, Q07157
Assay: holdup assay
Set-up: key: below the threshold = too weak to quantify, mostly under pKd 3.1 to 4
Conditions: plain residues with an end cap or a label only (N-terminal biotin on a linker: ado-ado)

Sequence of TJP1_2, Q07157 (Q07157 181-274): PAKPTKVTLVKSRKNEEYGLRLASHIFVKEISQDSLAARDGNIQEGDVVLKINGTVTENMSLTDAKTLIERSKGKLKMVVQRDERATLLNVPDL

pKd	Binder
below the threshold	B1

Target: T3, PARD3B_1, Q8TEW8
Assay: holdup assay
Set-up: key: below the threshold = too weak to quantify, mostly under pKd 3.1 to 4
Conditions: plain residues with an end cap or a label only (N-terminal biotin on a linker: ado-ado)

pKd	Binder
below the threshold	B1

Target: MAGI2_6, Q86UL8
Assay: holdup assay
Set-up: key: below the threshold = too weak to quantify, mostly under pKd 3.1 to 4
Conditions: plain residues with an end cap or a label only (N-terminal biotin on a linker: ado-ado)

Sequence of MAGI2_6, Q86UL8 (Q86UL8 1141-1229): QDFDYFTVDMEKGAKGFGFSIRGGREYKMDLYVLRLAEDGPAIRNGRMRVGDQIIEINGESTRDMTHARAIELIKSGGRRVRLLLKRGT

pKd	Binder
below the threshold	B1

Target: DLG2_2, Q15700
Assay: holdup assay
Set-up: key: below the threshold = too weak to quantify, mostly under pKd 3.1 to 4
Conditions: plain residues with an end cap or a label only (N-terminal biotin on a linker: ado-ado)

Sequence of DLG2_2, Q15700 (Q15700 189-283): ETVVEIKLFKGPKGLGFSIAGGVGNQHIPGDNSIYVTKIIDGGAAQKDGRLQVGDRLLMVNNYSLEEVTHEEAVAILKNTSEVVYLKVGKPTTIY

pKd	Binder
below the threshold	B1

Target: T4, LNX2_2, Q8N448
Assay: holdup assay
Set-up: key: below the threshold = too weak to quantify, mostly under pKd 3.1 to 4
Conditions: plain residues with an end cap or a label only (N-terminal biotin on a linker: ado-ado)

pKd	Binder
below the threshold	B1

Target: SCRIB_2, Q14160
Assay: holdup assay
Set-up: key: below the threshold = too weak to quantify, mostly under pKd 3.1 to 4
Conditions: plain residues with an end cap or a label only (N-terminal biotin on a linker: ado-ado)

Sequence of SCRIB_2, Q14160 (Q14160 857-960): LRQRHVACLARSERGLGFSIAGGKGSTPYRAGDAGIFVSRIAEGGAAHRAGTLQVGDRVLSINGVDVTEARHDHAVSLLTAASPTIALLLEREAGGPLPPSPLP

pKd	Binder
below the threshold	B1

Target: HTRA1, Q92743
Assay: holdup assay
Set-up: key: below the threshold = too weak to quantify, mostly under pKd 3.1 to 4
Conditions: plain residues with an end cap or a label only (N-terminal biotin on a linker: ado-ado)

Sequence of HTRA1, Q92743 (Q92743 360-477): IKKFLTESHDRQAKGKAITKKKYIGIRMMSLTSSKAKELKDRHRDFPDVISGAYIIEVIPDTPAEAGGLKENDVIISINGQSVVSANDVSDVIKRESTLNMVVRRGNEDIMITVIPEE

pKd	Binder
below the threshold	B1

Target: T5, DFNB31_3, Q9P202
Assay: holdup assay
Set-up: key: below the threshold = too weak to quantify, mostly under pKd 3.1 to 4
Conditions: plain residues with an end cap or a label only (N-terminal biotin on a linker: ado-ado)

pKd	Binder
3.88	B1

Target: PDLIM1, O00151
Assay: holdup assay
Set-up: key: below the threshold = too weak to quantify, mostly under pKd 3.1 to 4
Conditions: plain residues with an end cap or a label only (N-terminal biotin on a linker: ado-ado)

Sequence of PDLIM1, O00151 (O00151 1-87): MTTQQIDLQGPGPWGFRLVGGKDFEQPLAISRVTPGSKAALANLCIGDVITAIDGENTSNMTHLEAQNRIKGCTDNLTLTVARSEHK

pKd	Binder
below the threshold	B1

Target: MAGI2_3, Q86UL8
Assay: holdup assay
Set-up: key: below the threshold = too weak to quantify, mostly under pKd 3.1 to 4
Conditions: plain residues with an end cap or a label only (N-terminal biotin on a linker: ado-ado)

Sequence of MAGI2_3, Q86UL8 (Q86UL8 600-682): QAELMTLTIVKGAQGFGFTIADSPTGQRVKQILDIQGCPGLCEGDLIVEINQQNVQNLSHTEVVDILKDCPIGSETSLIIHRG

pKd	Binder
below the threshold	B1

Target: GRID2IP_1, A4D2P6
Assay: holdup assay
Set-up: key: below the threshold = too weak to quantify, mostly under pKd 3.1 to 4
Conditions: plain residues with an end cap or a label only (N-terminal biotin on a linker: ado-ado)

Sequence of GRID2IP_1, A4D2P6 (A4D2P6 1-87): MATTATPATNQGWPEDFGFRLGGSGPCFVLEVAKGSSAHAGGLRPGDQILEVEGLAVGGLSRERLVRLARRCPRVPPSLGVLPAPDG

pKd	Binder
below the threshold	B1

Target: SCRIB_3, Q14160
Assay: holdup assay
Set-up: key: below the threshold = too weak to quantify, mostly under pKd 3.1 to 4
Conditions: plain residues with an end cap or a label only (N-terminal biotin on a linker: ado-ado)

Sequence of SCRIB_3, Q14160 (Q14160 999-1103): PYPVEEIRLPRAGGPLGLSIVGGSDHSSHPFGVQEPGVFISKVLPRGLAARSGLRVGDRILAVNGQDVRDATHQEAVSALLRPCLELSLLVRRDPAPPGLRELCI

pKd	Binder
below the threshold	B1

Target: T6, SIPA1L2, Q9P2F8
Assay: holdup assay
Set-up: key: below the threshold = too weak to quantify, mostly under pKd 3.1 to 4
Conditions: plain residues with an end cap or a label only (N-terminal biotin on a linker: ado-ado)

pKd	Binder
below the threshold	B1

Target: NOS1, P29475
Assay: holdup assay
Set-up: key: below the threshold = too weak to quantify, mostly under pKd 3.1 to 4
Conditions: plain residues with an end cap or a label only (N-terminal biotin on a linker: ado-ado)

Sequence of NOS1, P29475 (P29475 9-101): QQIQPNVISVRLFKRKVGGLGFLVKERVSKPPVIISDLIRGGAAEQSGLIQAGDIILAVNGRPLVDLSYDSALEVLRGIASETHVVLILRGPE

pKd	Binder
below the threshold	B1

Target: T7, TIAM2, Q8IVF5
Assay: holdup assay
Set-up: key: below the threshold = too weak to quantify, mostly under pKd 3.1 to 4
Conditions: plain residues with an end cap or a label only (N-terminal biotin on a linker: ado-ado)

pKd	Binder
below the threshold	B1

Target: T8, GRIP1_4, Q9Y3R0
Assay: holdup assay
Set-up: key: below the threshold = too weak to quantify, mostly under pKd 3.1 to 4
Conditions: plain residues with an end cap or a label only (N-terminal biotin on a linker: ado-ado)

pKd	Binder
below the threshold	B1

Target: LAP2, Q96RT1
Assay: holdup assay
Set-up: key: below the threshold = too weak to quantify, mostly under pKd 3.1 to 4
Conditions: plain residues with an end cap or a label only (N-terminal biotin on a linker: ado-ado)

Sequence of LAP2, Q96RT1 (Q96RT1 other isoform, or with tags, fused parts or gaps): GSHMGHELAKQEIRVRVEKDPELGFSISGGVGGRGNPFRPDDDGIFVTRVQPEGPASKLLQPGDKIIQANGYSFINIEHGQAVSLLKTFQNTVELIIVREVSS

pKd	Binder
below the threshold	B1

Target: T9, DLG3_1, Q92796
Assay: holdup assay
Set-up: key: below the threshold = too weak to quantify, mostly under pKd 3.1 to 4
Conditions: plain residues with an end cap or a label only (N-terminal biotin on a linker: ado-ado)

pKd	Binder
below the threshold	B1

Target: T10, MPDZ_10, O75970
Assay: holdup assay
Set-up: key: below the threshold = too weak to quantify, mostly under pKd 3.1 to 4
Conditions: plain residues with an end cap or a label only (N-terminal biotin on a linker: ado-ado)

pKd	Binder
below the threshold	B1

Target: NHERF4_2, Q86UT5
Assay: holdup assay
Set-up: key: below the threshold = too weak to quantify, mostly under pKd 3.1 to 4
Conditions: plain residues with an end cap or a label only (N-terminal biotin on a linker: ado-ado)

Sequence of NHERF4_2, Q86UT5 (Q86UT5 220-308): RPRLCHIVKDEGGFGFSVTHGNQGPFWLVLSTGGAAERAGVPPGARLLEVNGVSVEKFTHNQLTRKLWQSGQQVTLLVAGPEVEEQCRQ

pKd	Binder
below the threshold	B1

Target: Inadl_1, Q8NI35
Assay: holdup assay
Set-up: key: below the threshold = too weak to quantify, mostly under pKd 3.1 to 4
Conditions: plain residues with an end cap or a label only (N-terminal biotin on a linker: ado-ado)

Sequence of Inadl_1, Q8NI35 (Q8NI35 113-229): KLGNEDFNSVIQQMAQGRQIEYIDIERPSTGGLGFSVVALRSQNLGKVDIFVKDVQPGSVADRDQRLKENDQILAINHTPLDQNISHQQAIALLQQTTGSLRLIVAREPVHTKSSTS

pKd	Binder
below the threshold	B1

Target: T11, PCLO, Q9Y6V0
Assay: holdup assay
Set-up: key: below the threshold = too weak to quantify, mostly under pKd 3.1 to 4
Conditions: plain residues with an end cap or a label only (N-terminal biotin on a linker: ado-ado)

pKd	Binder
below the threshold	B1

Target: DLG4_2, P78352
Assay: holdup assay
Set-up: key: below the threshold = too weak to quantify, mostly under pKd 3.1 to 4
Conditions: plain residues with an end cap or a label only (N-terminal biotin on a linker: ado-ado)

Sequence of DLG4_2, P78352 (P78352 155-259): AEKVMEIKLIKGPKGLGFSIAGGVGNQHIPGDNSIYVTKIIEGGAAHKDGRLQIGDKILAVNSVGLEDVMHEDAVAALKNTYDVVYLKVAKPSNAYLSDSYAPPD

pKd	Binder
below the threshold	B1

Target: DLG1_1, Q12959
Assay: holdup assay
Set-up: key: below the threshold = too weak to quantify, mostly under pKd 3.1 to 4
Conditions: plain residues with an end cap or a label only (N-terminal biotin on a linker: ado-ado)

pKd	Binder
below the threshold	B1
